Legend:
[1] = biological target: gp120 (Table 2, strain not given); assay: Luminex bead assay
HIV-1 Env gp41 (HIV-1) = HIV-1 Env gp41 (HIV-1) (UniProt P05877); assay: Luminex bead assay
[2] = biological target: recombinant human kynureninase (rhKYNU) (human) (UniProt Q16719); assay: ELISA on plate-bound rhKYNU, antibody titrated
[3] = biological target: recombinant human kynureninase (rhKYNU) (human) (UniProt Q16719); assay: ELISA on plate-bound rhKynureninase, antibody titrated
[4] = biological target: recombinant human kynureninase (rhKYNU) (human) (UniProt Q16719); assay: ELISA on plate-bound rhKYNU, 2F5 titrated (overlay with DP178-Q16L)
[5] = biological target: membrane conjugated gp41-inter; assay: SPR, gp41-inter held by Ni on liposomes captured on the chip, mAb injected; bivalent analyte fit [left panel]
HCV E2 (HCV) = assay: Luminex assay, antibody 50 µg/ml
[6] = biological target: Influenza HA (Wisconsin) (influenza virus); assay: Luminex assay, antibody 50 µg/ml
Histone [7] = assay: Athena autoantigen assay, mAb 25 ug/ml
Jo 1 [8] = assay: Athena autoantigen assay, mAb 25 ug/ml
Sequence of Jo 1 (P12081 2-509): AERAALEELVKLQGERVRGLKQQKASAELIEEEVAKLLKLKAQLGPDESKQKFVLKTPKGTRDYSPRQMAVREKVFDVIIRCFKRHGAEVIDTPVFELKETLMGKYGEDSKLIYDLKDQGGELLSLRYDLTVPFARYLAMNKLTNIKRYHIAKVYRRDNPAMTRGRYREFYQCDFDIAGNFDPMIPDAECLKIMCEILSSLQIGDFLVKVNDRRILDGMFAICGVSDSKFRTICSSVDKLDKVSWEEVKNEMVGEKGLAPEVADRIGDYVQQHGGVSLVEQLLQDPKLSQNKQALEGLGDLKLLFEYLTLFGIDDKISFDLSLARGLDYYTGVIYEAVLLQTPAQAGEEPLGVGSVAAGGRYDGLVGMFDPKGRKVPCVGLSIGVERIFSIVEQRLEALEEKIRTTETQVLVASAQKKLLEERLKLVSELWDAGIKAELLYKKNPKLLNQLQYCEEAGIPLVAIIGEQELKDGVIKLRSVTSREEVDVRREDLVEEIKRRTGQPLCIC

RNP [9] = assay: Athena autoantigen assay, mAb 25 ug/ml
SSA [10] = assay: Athena autoantigen assay, mAb 25 ug/ml
SSB [11] = assay: Athena autoantigen assay, mAb 25 ug/ml
Sequence of SSB (P05455 whole entry): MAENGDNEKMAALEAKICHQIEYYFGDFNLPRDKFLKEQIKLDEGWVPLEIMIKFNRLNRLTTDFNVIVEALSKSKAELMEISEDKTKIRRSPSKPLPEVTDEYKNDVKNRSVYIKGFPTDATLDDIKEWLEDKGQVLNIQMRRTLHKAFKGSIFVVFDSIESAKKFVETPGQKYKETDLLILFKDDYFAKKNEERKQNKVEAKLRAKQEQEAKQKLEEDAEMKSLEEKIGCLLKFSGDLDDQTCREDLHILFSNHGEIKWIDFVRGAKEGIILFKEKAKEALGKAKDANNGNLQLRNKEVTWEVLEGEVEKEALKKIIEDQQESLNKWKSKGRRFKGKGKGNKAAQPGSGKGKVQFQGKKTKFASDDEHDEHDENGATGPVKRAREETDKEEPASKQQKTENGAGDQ

Scl 70 [12] = assay: Athena autoantigen assay, mAb 25 ug/ml
Sm [13] = assay: Athena autoantigen assay, mAb 25 ug/ml
Histone [14] = assay: Athena autoantigen assay, mAb 50 ug/ml
Jo 1 [15] = assay: Athena autoantigen assay, mAb 50 ug/ml
SSA [16] = assay: Athena autoantigen assay, mAb 50 ug/ml
SSB [17] = assay: Athena autoantigen assay, mAb 50 ug/ml
Histone [18] = assay: Athena autoantigen assay, mAb 12.5 ug/ml
Jo 1 [19] = assay: Athena autoantigen assay, mAb 12.5 ug/ml
RNP [20] = assay: Athena autoantigen assay, mAb 12.5 ug/ml
SSA [21] = assay: Athena autoantigen assay, mAb 12.5 ug/ml
SSB [22] = assay: Athena autoantigen assay, mAb 12.5 ug/ml
Scl 70 [23] = assay: Athena autoantigen assay, mAb 12.5 ug/ml
Sm [24] = assay: Athena autoantigen assay, mAb 12.5 ug/ml
Histone [25] = assay: Athena autoantigen assay, mAb 6.25 ug/ml
Jo 1 [26] = assay: Athena autoantigen assay, mAb 6.25 ug/ml
RNP [27] = assay: Athena autoantigen assay, mAb 6.25 ug/ml
SSA [28] = assay: Athena autoantigen assay, mAb 6.25 ug/ml
SSB [29] = assay: Athena autoantigen assay, mAb 6.25 ug/ml
Scl 70 [30] = assay: Athena autoantigen assay, mAb 6.25 ug/ml
Sm [31] = assay: Athena autoantigen assay, mAb 6.25 ug/ml
JRFL gp140 (HIV-1) [32] = assay: SPR, MAb on the surface, Env injected; JRFFL wt (not deglycosylated)
[33] = biological target: deglycosylated JRFL gp140 CF (HIV-1); assay: SPR, MAb on the surface, Env injected; JRFL wt DEG 5 (PNGase 5 U/µg)
[34] = biological target: deglycosylated JRFL gp140 CF (HIV-1); assay: SPR, MAb on the surface, Env injected; JRFL wt DEG 20 (PNGase 20 U/µg)
[35] = biological target: deglycosylated JRFL gp140 CF (HIV-1); assay: SPR, MAb on the surface, Env injected; JRFL wt DEG 500 (PNGase 500 U/µg)
JRFL gp140 (HIV-1) [36] = assay: SPR, MAb on the surface, Env injected; JRFFL wt (not deglycosylated); Koff (x10^-3 s-1)
[37] = biological target: deglycosylated JRFL gp140 CF (HIV-1); assay: SPR, MAb on the surface, Env injected; JRFL wt DEG 5 (PNGase 5 U/µg); Koff (x10^-3 s-1)
[38] = biological target: membrane conjugated gp41-inter; assay: SPR, gp41-inter held by Ni on liposomes captured on the chip, mAb injected; bivalent analyte fit [right panel]
JRFL gp140 (HIV-1) [39] = assay: SPR, MAb on the surface, Env injected; JRFFL wt (not deglycosylated); Kon (x10^3 M-1s-1)
[40] = biological target: deglycosylated JRFL gp140 CF (HIV-1); assay: SPR, MAb on the surface, Env injected; JRFL wt DEG 5 (PNGase 5 U/µg); Kon (x10^3 M-1s-1)
[41] = biological target: deglycosylated JRFL gp140 CF (HIV-1); assay: SPR, MAb on the surface, Env injected; JRFL wt DEG 20 (PNGase 20 U/µg); Koff (x10^-3 s-1)
[42] = biological target: deglycosylated JRFL gp140 CF (HIV-1); assay: SPR, MAb on the surface, Env injected; JRFL wt DEG 20 (PNGase 20 U/µg); Kon (x10^3 M-1s-1)
[43] = biological target: deglycosylated JRFL gp140 CF (HIV-1); assay: SPR, MAb on the surface, Env injected; JRFL wt DEG 500 (PNGase 500 U/µg); Koff (x10^-3 s-1)
[44] = biological target: deglycosylated JRFL gp140 CF (HIV-1); assay: SPR, MAb on the surface, Env injected; JRFL wt DEG 500 (PNGase 500 U/µg); Kon (x10^3 M-1s-1)

Sequence of recombinant human kynureninase (rhKYNU) (human) (Q16719 whole entry): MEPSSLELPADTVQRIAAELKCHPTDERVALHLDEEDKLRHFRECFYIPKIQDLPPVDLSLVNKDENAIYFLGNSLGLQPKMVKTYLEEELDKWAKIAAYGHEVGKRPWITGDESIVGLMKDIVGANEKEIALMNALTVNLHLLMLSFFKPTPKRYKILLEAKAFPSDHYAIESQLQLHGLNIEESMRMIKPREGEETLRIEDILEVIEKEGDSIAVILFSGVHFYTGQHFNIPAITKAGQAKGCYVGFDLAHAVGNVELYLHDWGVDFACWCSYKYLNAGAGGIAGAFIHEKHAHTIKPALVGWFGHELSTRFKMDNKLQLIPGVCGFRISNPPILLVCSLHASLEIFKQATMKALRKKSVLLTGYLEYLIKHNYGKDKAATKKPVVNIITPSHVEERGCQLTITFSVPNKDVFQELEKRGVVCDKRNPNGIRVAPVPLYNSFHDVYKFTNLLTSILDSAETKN

In the case of 1b12 original (antibody), the Reactivity in Luminex Units (Luminex units) [1] is reported as 5110.
In the case of 2F5 (antibody), the Reactivity in Luminex Units (Luminex units) (HIV-1 Env gp41 (HIV-1)) is reported as 32700, the Reactivity in Luminex Units (Luminex units) [1] is reported as 9240 and the EC50 (read off the curve) [2] is reported as 0.05 µg/mL. It also gave an EC50 (read off the curve) [3] of 0.03 µg/mL, an EC50 (read off the curve) [4] of 0.05 µg/mL and a Kd [5] of 0.21 nM. The koff [5] was 9e-06 s⁻¹.
Work on 4E10 (antibody) yielded a background subtracted RFUs (HCV E2 (HCV)) of 89.2 RFU, a background subtracted RFUs [6] of 0 RFU and an Athena autoreactivity score (Histone [7]) of 274. For the same substance, the Athena autoreactivity score (Jo 1 [8]) was 138, the Athena autoreactivity score (RNP [9]) was 15 and the Athena autoreactivity score (SSA [10]) was 247. It also gave an Athena autoreactivity score (SSB [11]) of 206, an Athena autoreactivity score (Scl 70 [12]) of 4 and an Athena autoreactivity score (Sm [13]) of 7. For the same substance, the Athena autoreactivity score (Histone [14]) was 333, the Athena autoreactivity score (Jo 1 [15]) was 156 and the Athena autoreactivity score (SSA [16]) was 306. It also gave an Athena autoreactivity score (SSB [17]) of 254, an Athena autoreactivity score (Histone [18]) of 160 and an Athena autoreactivity score (Jo 1 [19]) of 87. For the same substance, the Athena autoreactivity score (RNP [20]) was 9, the Athena autoreactivity score (SSA [21]) was 169 and the Athena autoreactivity score (SSB [22]) was 124. For the same substance, the Athena autoreactivity score (Scl 70 [23]) was 3, the Athena autoreactivity score (Sm [24]) was 5 and the Athena autoreactivity score (Histone [25]) was 113. The Athena autoreactivity score (Jo 1 [26]) was 65, the Athena autoreactivity score (RNP [27]) was 6 and the Athena autoreactivity score (SSA [28]) was 115. For the same substance, the Athena autoreactivity score (SSB [29]) was 93, the Athena autoreactivity score (Scl 70 [30]) was 2 and the Athena autoreactivity score (Sm [31]) was 4. For the same substance, the Kd (JRFL gp140 (HIV-1) [32]) was 2200 nM, the Kd [33] was 135 nM and the Kd [34] was 40 nM. For the same substance, the Kd [35] was 50 nM, the koff (JRFL gp140 (HIV-1) [36]) was 0.0013 s⁻¹ and the koff [37] was 0.001 s⁻¹. For the same substance, the Kd [38] was 0.73 nM, the koff [38] was 2.5e-05 s⁻¹ and the kon (JRFL gp140 (HIV-1) [39]) was 600 M⁻¹ s⁻¹. For the same substance, the kon [40] was 7400 M⁻¹ s⁻¹, the koff [41] was 0.00099 s⁻¹ and the kon [42] was 27000 M⁻¹ s⁻¹. The koff [43] was 0.001 s⁻¹ and the kon [44] was 21000 M⁻¹ s⁻¹.
Substance “17b original (CCR5 binding site antibody)” has a Reactivity in Luminex Units (Luminex units) (HIV-1 Env gp41 (HIV-1)) of 1430.
CH02 (antibody) was tested, and the background subtracted RFUs (HCV E2 (HCV)) was 333 RFU, the background subtracted RFUs [6] was 0.3 RFU and the Athena autoreactivity score (Histone [7]) was 11.5. It also gave an Athena autoreactivity score (Jo 1 [8]) of 1.5, an Athena autoreactivity score (RNP [9]) of 9 and an Athena autoreactivity score (SSA [10]) of 6. It also gave an Athena autoreactivity score (SSB [11]) of 4.5, an Athena autoreactivity score (Scl 70 [12]) of 2 and an Athena autoreactivity score (Sm [13]) of 3. The Athena autoreactivity score (Histone [18]) was 8.5, the Athena autoreactivity score (Jo 1 [19]) was 1 and the Athena autoreactivity score (RNP [20]) was 6. It also gave an Athena autoreactivity score (SSA [21]) of 5, an Athena autoreactivity score (SSB [22]) of 3.5 and an Athena autoreactivity score (Scl 70 [23]) of 1.5. For the same substance, the Athena autoreactivity score (Sm [24]) was 2.5, the Athena autoreactivity score (Histone [25]) was 7 and the Athena autoreactivity score (Jo 1 [26]) was 1.5. It also gave an Athena autoreactivity score (RNP [27]) of 5, an Athena autoreactivity score (SSA [28]) of 5 and an Athena autoreactivity score (SSB [29]) of 5. For the same substance, the Athena autoreactivity score (Scl 70 [30]) was 2 and the Athena autoreactivity score (Sm [31]) was 2.5.

— patent US20160271244A1
